Source: patent publication US20250163127A1

What was measured:
Assay in all cases: flow cytometry, transfected cells
[1] = target: CD28 (human) (UniProt P10747)
[2] = target: CTLA-4 (Homo sapiens (Human)) (UniProt P16410)
[3] = substrate: ICOS (Homo sapiens (Human)) (UniProt Q9Y6W8)
Sequence of ICOS (Homo sapiens (Human)) (Q9Y6W8 21-199 limits assumed): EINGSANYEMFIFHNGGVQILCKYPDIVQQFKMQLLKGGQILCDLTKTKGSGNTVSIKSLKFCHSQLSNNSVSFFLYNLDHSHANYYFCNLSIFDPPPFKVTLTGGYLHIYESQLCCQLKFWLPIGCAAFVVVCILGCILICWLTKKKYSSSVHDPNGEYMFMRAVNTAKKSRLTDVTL

Sequence of CTLA-4 (Homo sapiens (Human)) (P16410 36-223): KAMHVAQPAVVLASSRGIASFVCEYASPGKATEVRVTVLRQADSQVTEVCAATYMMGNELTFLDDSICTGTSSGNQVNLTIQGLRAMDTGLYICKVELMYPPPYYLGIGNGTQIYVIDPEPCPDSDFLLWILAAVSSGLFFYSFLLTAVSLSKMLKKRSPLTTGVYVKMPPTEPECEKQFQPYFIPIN

Binder	MFI [1]	MFI ratio to WT (ΔWT) [1]	MFI [2]	MFI ratio to WT (ΔWT) [2]	MFI [3]	MFI ratio to WT (ΔWT) [3]
ICOSL-Fc N52M/N57H/Q100S (Fc fusion) DTQEKEVRAMVGSDVELSCACPEGSRFDLNDVYVYWQTSESKTVVTYHIPQMSSLEHVDSRYRNRALMSPAGMLRGDFSLRLFNVTPQDEQKFHCLVLSSSLGFQEVLSVEVTLHVAANFSVPVVSAPHSPSQDELTFTCTSINGYPRPNVYWINKTDNSLLDQALQNDTVFLNMRGLYDVVSVLRIARTPSVNIGCCIENVLLQQNLTVGSQTGNDIGERDKITENPVSTGEKNAAT	115000 MFI	5.1 fold	463000 MFI	1.4 fold	266000 MFI	1.25 fold
ICOSL-Fc N52Q/N57F (Fc fusion) DTQEKEVRAMVGSDVELSCACPEGSRFDLNDVYVYWQTSESKTVVTYHIPQQSSLEFVDSRYRNRALMSPAGMLRGDFSLRLFNVTPQDEQKFHCLVLSQSLGFQEVLSVEVTLHVAANFSVPVVSAPHSPSQDELTFTCTSINGYPRPNVYWINKTDNSLLDQALQNDTVFLNMRGLYDVVSVLRIARTPSVNIGCCIENVLLQQNLTVGSQTGNDIGERDKITENPVSTGEKNAAT	131000 MFI	5.9 fold	367000 MFI	1.11 fold	192000 MFI	0.91 fold
ICOSL-Fc N52R/N57Y/Q100S (Fc fusion) DTQEKEVRAMVGSDVELSCACPEGSRFDLNDVYVYWQTSESKTVVTYHIPQRSSLEYVDSRYRNRALMSPAGMLRGDFSLRLFNVTPQDEQKFHCLVLSSSLGFQEVLSVEVTLHVAANFSVPVVSAPHSPSQDELTFTCTSINGYPRPNVYWINKTDNSLLDQALQNDTVFLNMRGLYDVVSVLRIARTPSVNIGCCIENVLLQQNLTVGSQTGNDIGERDKITENPVSTGEKNAAT	133000 MFI	6 fold	504000 MFI	1.53 fold	229000 MFI	1.08 fold
ICOSL-Fc N52Q/N57S/Q100A (Fc fusion) DTQEKEVRAMVGSDVELSCACPEGSRFDLNDVYVYWQTSESKTVVTYHIPQQSSLESVDSRYRNRALMSPAGMLRGDFSLRLFNVTPQDEQKFHCLVLSASLGFQEVLSVEVTLHVAANFSVPVVSAPHSPSQDELTFTCTSINGYPRPNVYWINKTDNSLLDQALQNDTVFLNMRGLYDVVSVLRIARTPSVNIGCCIENVLLQQNLTVGSQTGNDIGERDKITENPVSTGEKNAAT	91300 MFI	4.1 fold	315000 MFI	0.95 fold	263000 MFI	1.24 fold
ICOSL-Fc N52M/N57W/Q100P (Fc fusion) DTQEKEVRAMVGSDVELSCACPEGSRFDLNDVYVYWQTSESKTVVTYHIPQMSSLEWVDSRYRNRALMSPAGMLRGDFSLRLFNVTPQDEQKFHCLVLSPSLGFQEVLSVEVTLHVAANFSVPVVSAPHSPSQDELTFTCTSINGYPRPNVYWINKTDNSLLDQALQNDTVFLNMRGLYDVVSVLRIARTPSVNIGCCIENVLLQQNLTVGSQTGNDIGERDKITENPVSTGEKNAAT	168000 MFI	7.5 fold	343000 MFI	1.04 fold	322000 MFI	1.52 fold
ICOSL-Fc N52S/N57H/Q100E (Fc fusion) DTQEKEVRAMVGSDVELSCACPEGSRFDLNDVYVYWQTSESKTVVTYHIPQSSSLEHVDSRYRNRALMSPAGMLRGDFSLRLFNVTPQDEQKFHCLVLSESLGFQEVLSVEVTLHVAANFSVPVVSAPHSPSQDELTFTCTSINGYPRPNVYWINKTDNSLLDQALQNDTVFLNMRGLYDVVSVLRIARTPSVNIGCCIENVLLQQNLTVGSQTGNDIGERDKITENPVSTGEKNAAT	117000 MFI	5.2 fold	302000 MFI	0.92 fold	258000 MFI	1.22 fold
ICOSL-Fc N52R/N57L/Q100A (Fc fusion) DTQEKEVRAMVGSDVELSCACPEGSRFDLNDVYVYWQTSESKTVVTYHIPQRSSLELVDSRYRNRALMSPAGMLRGDFSLRLFNVTPQDEQKFHCLVLSASLGFQEVLSVEVTLHVAANFSVPVVSAPHSPSQDELTFTCTSINGYPRPNVYWINKTDNSLLDQALQNDTVFLNMRGLYDVVSVLRIARTPSVNIGCCIENVLLQQNLTVGSQTGNDIGERDKITENPVSTGEKNAAT	119000 MFI	5.3 fold	403000 MFI	1.22 fold	308000 MFI	1.45 fold

Results, then the binder that gave them:

MFI [1]	MFI ratio to WT (ΔWT) [1]	MFI [2]	MFI ratio to WT (ΔWT) [2]	MFI [3]	MFI ratio to WT (ΔWT) [3]	Binder
134000 MFI	6 fold	228000 MFI	0.69 fold	312000 MFI	1.47 fold	ICOSL-Fc N52S/N57M/Q100S (Fc fusion) DTQEKEVRAMVGSDVELSCACPEGSRFDLNDVYVYWQTSESKTVVTYHIPQSSSLEMVDSRYRNRALMSPAGMLRGDFSLRLFNVTPQDEQKFHCLVLSSSLGFQEVLSVEVTLHVAANFSVPVVSAPHSPSQDELTFTCTSINGYPRPNVYWINKTDNSLLDQALQNDTVFLNMRGLYDVVSVLRIARTPSVNIGCCIENVLLQQNLTVGSQTGNDIGERDKITENPVSTGEKNAAT
161000 MFI	7.2 fold	205000 MFI	0.62 fold	224000 MFI	1.06 fold	ICOSL-Fc N52S/N57Y/Q100S (Fc fusion) DTQEKEVRAMVGSDVELSCACPEGSRFDLNDVYVYWQTSESKTVVTYHIPQSSSLEYVDSRYRNRALMSPAGMLRGDFSLRLFNVTPQDEQKFHCLVLSSSLGFQEVLSVEVTLHVAANFSVPVVSAPHSPSQDELTFTCTSINGYPRPNVYWINKTDNSLLDQALQNDTVFLNMRGLYDVVSVLRIARTPSVNIGCCIENVLLQQNLTVGSQTGNDIGERDKITENPVSTGEKNAAT
108000 MFI	4.8 fold	197000 MFI	0.6 fold	269000 MFI	1.27 fold	ICOSL-Fc N52S/N57L/Q100S (Fc fusion) DTQEKEVRAMVGSDVELSCACPEGSRFDLNDVYVYWQTSESKTVVTYHIPQSSSLELVDSRYRNRALMSPAGMLRGDFSLRLFNVTPQDEQKFHCLVLSSSLGFQEVLSVEVTLHVAANFSVPVVSAPHSPSQDELTFTCTSINGYPRPNVYWINKTDNSLLDQALQNDTVFLNMRGLYDVVSVLRIARTPSVNIGCCIENVLLQQNLTVGSQTGNDIGERDKITENPVSTGEKNAAT
157000 MFI	7 fold	395000 MFI	1.2 fold	303000 MFI	1.43 fold	ICOSL-Fc N52S/N57Y/Q100M (Fc fusion) DTQEKEVRAMVGSDVELSCACPEGSRFDLNDVYVYWQTSESKTVVTYHIPQSSSLEYVDSRYRNRALMSPAGMLRGDFSLRLFNVTPQDEQKFHCLVLSMSLGFQEVLSVEVTLHVAANFSVPVVSAPHSPSQDELTFTCTSINGYPRPNVYWINKTDNSLLDQALQNDTVFLNMRGLYDVVSVLRIARTPSVNIGCCIENVLLQQNLTVGSQTGNDIGERDKITENPVSTGEKNAAT
126000 MFI	5.7 fold	305000 MFI	0.92 fold	219000 MFI	1.03 fold	ICOSL-Fc N52S/N57Y/Q100V (Fc fusion) DTQEKEVRAMVGSDVELSCACPEGSRFDLNDVYVYWQTSESKTVVTYHIPQSSSLEYVDSRYRNRALMSPAGMLRGDFSLRLFNVTPQDEQKFHCLVLSVSLGFQEVLSVEVTLHVAANFSVPVVSAPHSPSQDELTFTCTSINGYPRPNVYWINKTDNSLLDQALQNDTVFLNMRGLYDVVSVLRIARTPSVNIGCCIENVLLQQNLTVGSQTGNDIGERDKITENPVSTGEKNAAT
